B1: Ras GTPase-activating protein 1, residues 281 to 341; numbered along this chain, P20936 (parent)
chain: RRRVRAILPYTKVPDTDEISFLKGDMFIVHNELEDGWMWVTNLRTDEQGLIVEDLVEEVGR

Variants of: B1
Assay: abundance fitness (aPCA) (normalised: wild type 0, dead -1); higher = more abundant; growth selection in yeast, the domain comes from the species named
Settings: Homo sapiens

Abundance fitness of substitutions, site by site:
V40: H -0.858; F -0.881; A 0.002; R -0.836; L -0.935; C -0.102; N -0.987; E -1.13; W -0.917; G -0.547; P -0.77; T -0.672; S -0.826; I -0.829; Q -1.01; K -0.682; D -0.846
Q48: K 0.015; T 0.019; I -0.084; P -0.503; W -0.32; E -0.06; C -0.043; G -0.375; Y -0.08; D -0.038; R -0.051; M -0.107; F -0.122; H -0.048; A -0.073; S -0.022
G49: Y -0.936; A -0.926; I -0.874; Q -1.01; W -1.09; P -0.846; N -0.836; F -0.754; D -0.836; H -0.825; V -0.949; E -0.766; S -0.979; T -0.791; R -1.04; C -0.784; L -0.847
M38: N -0.623; D -0.871; L -0.013; G -0.78; H -0.865; K -0.414; C -0.228; E -1.24; V -0.305; S -0.451; Q -0.548; R -0.505; A -0.396; F -0.18; P -0.867; Y -0.188; W -0.438
T45: P -0.988; C -0.771; K -1.05; H -0.769; Q -0.962; W -0.876; V -0.807; Y -0.841; A -0.735; E -0.997; G -0.851; N -0.005; M -0.974; S -0.098; L -0.836; D -0.762; F -0.796
L33: P -0.07; D -0.182; S -0.102; Y -0.051; N -0.158; C -0.07; I -0.075; R 0.04; T -0.03; G -0.082; Q 0.004; A -0.054; E -0.153; F -0.042; W -0.136; M -0.099
W39: F -0.034; V -0.195; P -0.796; G -0.67; D -0.226; E 0.003; I -0.284; L -0.063; Y -0.009; R -0.03; M -0.094; T -0.26; H -0.204; C -0.187; N -0.134; Q -0.079; K -0.118
D46: K 0.085; M -0.014; S -0.011; Q -0.11; E 0.066; G 0.038; I -0.085; N 0.004; W 0.029; C -0.002; Y -0.098; V -0.044; F -0.065; T -0.029; P -0.864; H 0.009; A 0.05; R 0.019; L -0.08
N42: K -0.61; L -0.296; F -0.782; P -0.874; T -0.875; D -0.585; Y -0.969; M -0.577; I -0.893; H -0.381; G -0.802; V -0.963; W -0.929; C -0.1; A -0.436; S -0.235; Q -0.737; E -0.698
N31: Y -0.057; A -0.036; V -0.159; D 0.046; M -0.044; E -0.038; G -0.072; F -0.17; P -0.841; C -0.129; W -0.043; T -0.046; K 0.034
